± gives the uncertainty stated by the source.
Experiment: self-splicing fitness, log relative to wild type (ln ratio); higher = more splicing; Tetrahymena group I intron in knt gene, E. coli kanamycin selection, DiMSum; sequences stand for … in CUCUCU…GGAGGGAAAAGUUAUCAGGCAUGCACCUGGUAGCUAGUCUUUAAACCAAUAGAUUGCAUCGGUUUAAAAGGCAAGACCGUCAAAUUGCGGGAAAGGGGUCAACAGCCGUUCAGUACCAAGUCUCAGGGGAAACUUUGAGAUGGCCUUGCAAAGGGUAUGGUAAUAAGCUGACGGACAUGGUCCUAACCACGCAGCCAAGUCCUAAGUCAACAGAUCUUCUGUUGAUAUGGAUGCAGUUCACAGACUAAAUGUCGGUCGGGGAAGAUGUAUUCUUCUCAUAAGAUAUAGUCGGACCUCUCCUUAAUGGGAGCUAGCGGAUGAAGUGAUGCAACACUGGAGCCGCUGGGAACUAAUUUGUAUGCGAAAGUAUAUUGAUUAGUUUUGGAGUACUCGUGGUCG
Procedure, shortened: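 A randomised library covering all eight P1ex-region intron nucleotides was built with the intron in the knt kanamycin-resistance gene on pET-22b(+) and held in E. coli BL21(DE3). Cells were grown overnight at 37°C or 30°C on LB agar, with or without 25 μg/mL kanamycin, plus 100 μg/mL carbenicillin, 50 μM IPTG and 0.2% rhamnose, and pooled colonies were amplicon-sequenced on an Illumina HiSeq 2500. DiMSum fitness is the error-weighted combination of wild-type-normalised replicate fold changes, kanamycin versus none.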

Sequence | self-splicing fitness (ln) (30 °C) | self-splicing fitness (ln) (37 °C)
ACUUAGCAAUAUUACGCGUC | -3.62 ± 0.25 | -1.83 ± 0.26
CUUCAGCAAUAUUACGGACG | -0.00287 ± 0.06 | -0.541 ± 0.073
UGAAAGCAAUAUUACGCCUA | 0.122 ± 0.093 | 0.207 ± 0.098
CGUUAGCAAUAUUACGAGUA | -3.68 ± 0.37 | -2.67 ± 0.36
GGAAAGCAAUAUUACGCCCU | -1.16 ± 0.21 | -1.25 ± 0.21
CACUAGCAAUAUUACGGAGG | -2.39 ± 0.1 | -0.627 ± 0.1
CCUGAGCAAUAUUACGCUAA | -3.04 ± 0.2 | -2.88 ± 0.25
GUGUAGCAAUAUUACGCUAU |  | -1.15 ± 0.24
GGCCAGCAAUAUUACGUAUA | -3.92 ± 0.26 | -2.23 ± 0.2
UUAUAGCAAUAUUACGCUAA | -2.61 ± 0.24 | -2.34 ± 0.19
AGCAAGCAAUAUUACGGUAC | -4.18 ± 0.2 | -2.16 ± 0.16
UUAUAGCAAUAUUACGUAGA | -1.34 ± 0.17 | -0.707 ± 0.17
CUAAAGCAAUAUUACGCGGC | -1.21 ± 0.13 | -1.28 ± 0.17
GACAAGCAAUAUUACGGCGG | -3.27 ± 0.29 | -1.87 ± 0.18
CACGAGCAAUAUUACGGUGG | -2.15 ± 0.11 | -2.33 ± 0.15
UAACAGCAAUAUUACGUGGC | -4.59 ± 0.29 | -2.56 ± 0.23
UUAUAGCAAUAUUACGACCG | -0.514 ± 0.16 | 0.446 ± 0.22
CACAAGCAAUAUUACGAGCA | -2.96 ± 0.2 | -2.28 ± 0.17
GGCCAGCAAUAUUACGCUGA | -0.636 ± 0.063 | -0.331 ± 0.074

Sequence | self-splicing fitness (ln) (30 °C) | self-splicing fitness (ln) (37 °C)
GCUUAGCAAUAUUACGCUUU | -1.23 ± 0.064 | -0.413 ± 0.084
CUCAAGCAAUAUUACGGGAC | -3.7 ± 0.33 | -2.14 ± 0.3
UGAGAGCAAUAUUACGAGGA | -3.49 ± 0.34 | -2.83 ± 0.4
UUUUAGCAAUAUUACGGCGG | -0.446 ± 0.16 | -0.137 ± 0.15
AGCAAGCAAUAUUACGUUUU | -2.46 ± 0.077 | -1.71 ± 0.09
CAUCAGCAAUAUUACGCCAA | -1.99 ± 0.25 | -1.81 ± 0.24
CGAGAGCAAUAUUACGCCCA |  | -0.872 ± 0.36
GGGUAGCAAUAUUACGCGAU | -3.42 ± 0.26 | -1.93 ± 0.23
GCUGAGCAAUAUUACGCCAC | -4.02 ± 0.27 | -2.27 ± 0.26
CAACAGCAAUAUUACGGUAC | -4.95 ± 0.28 | -3.34 ± 0.22
AAACAGCAAUAUUACGUCUC | -3.42 ± 0.15 | -2.31 ± 0.16
UGGCAGCAAUAUUACGACUG | -1.01 ± 0.071 | -0.812 ± 0.1
UGUUAGCAAUAUUACGAGAU |  | -2.58 ± 0.44
CCUCAGCAAUAUUACGCAGC | -3.42 ± 0.14 | -2.49 ± 0.17
GCGAAGCAAUAUUACGUCGG | -2.61 ± 0.21 | -0.565 ± 0.25
CUGAAGCAAUAUUACGAUGA | -3.52 ± 0.21 | -1.92 ± 0.16
GGUAAGCAAUAUUACGGUGU | -1.81 ± 0.1 | -0.484 ± 0.11
GAAAAGCAAUAUUACGGGUU | -1.27 ± 0.095 | -1.22 ± 0.12
CGGGAGCAAUAUUACGGAUC | -3.09 ± 0.43 | -2.07 ± 0.42

Reference: the supplement of paper PMC7877785
